# Experimental data as given in the supplement of paper PMC7125110.
# ± gives the standard error. This sample holds only a part of the variants without activity.
# B1: glmS ribozyme (parent)
# chain: AUAAAAGCGCCAGAACUACAGAAAUGUAGUUGACGAGGAGGAGGUUUAUCGAAUUUUCGGCGGAUGCCUCCAAA
# Variants of: B1
# Assay: self-cleavage kobs at 2500 uM GlcN6P; higher = faster cleavage; RNA array
# Conditions: with glucosamine-6-phosphate
# Outline: (§1)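 Tracking of barcoded ribozyme variants used a hybridised Cy3 probe at 37 °C, after in situ transcription by E. coli RNA polymerase on sequenced MiSeq chips. The flowed solution held 40 μM to 10 mM glucosamine-6-phosphate in HEPES/KCl/Mg(OAc)2 buffer, and imaging ran over ~14 h. kobs was taken from exponential decay fits of normalised per-tile medians, and kcat and KM from weighted Michaelis–Menten fits.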
row,Variant,self-cleavage kobs at 2500 uM GlcN6P
1,AUAAACGCGCCAGAACUACAGAAAUGUAGUUGACGAGGGGGAGGUUUAUCCAAUUUUCGGCGGAUGCCUCCAAA,< 1e-05 s⁻¹
2,AUAAAGGCGCCAGUACUACAGAAAUGUAGCUGACGAGGAGGAGGUUUUUCGAAUUUUCGGCGGAUGGGUCCAAA,7.37e-05 ± 3e-05 s⁻¹
3,AUAAAGGCGCCAGAACUACAGAAAUGUAGUUGACGAGGAGGAGGUUUAUGGAAUUUUCGGUGGAUGCCUCCAAA,0.000108 ± 3.5e-05 s⁻¹
4,ACAAACGCGCCAGAACUACAGAAAUGUAGUUGACGAGGAGGAGGUUUAUCGAAUUUUCGACGGAUGCCUCCAAA,< 1e-05 s⁻¹
5,AUAAAGGCGCCAGAACUACAGAAAUGUAGUUGACGAGGAGGAGGUUUAUCGAAUUUUCGGCGGACGCUUCCAAA,< 1e-05 s⁻¹
6,AUAAAGGCGCCAGAACUACAGAAAUGUAGUUGACGAGGAGGAGGUUUAUCUAAUUUUUGGCGGAUGCCUCCAAA,< 1e-05 s⁻¹
7,AUAAACGCGCCAGAACUACAGAAAUGUAGUUGAUGAGGAGGAGGUUUAUGGAAUUUUCGGCGGAUGCCUCCAAA,0.000502 ± 0.00022 s⁻¹
8,AUAAAUGAGCCAGAACUACAGAAAUGUAGUUGACGAGGAGGAGGUUUAUCGAAUUAUCGGCGGAUGCCUCCAAA,< 1e-05 s⁻¹
9,AUAAAGGCGCCAGAACUACAGAAAUGUAGUUGACGAGGAGGAGGUUUGUCGAAUUUUCGGCGGAUGCCUCAAAA,< 1e-05 s⁻¹
10,AUAAAGGCGCCAGCACUACAGAAAUGUAGUUGACGAGGAGGAGGUUUGUCGAAUUUUCGGCGGAUGCCUCCAAA,< 1e-05 s⁻¹
11,AUAAACGCGCCAGAACUACAGAAAUGUAGUUGUCGACGAGGUGGUUUCUCGAAUUAUCUGCGGAUGCGUCCAAA,< 1e-05 s⁻¹
12,AUAAAGGCGCCAGAACUACAGAAAUGUAGUUGACGCGGAGGAGGUUUAUCGAAUCUUCGGCGGAUGCCUCCAAA,< 1e-05 s⁻¹
13,AUAAAGGCGCCAGAACUACAGAAAUGUAGUUGACGAGGAGGAGGUUUAUCGAAUCUUCGGCGGAUGCCUCAAAA,< 1e-05 s⁻¹
14,AUACAAGCGCCAGAACUACAGAAAUGUAGUUGACGAGGAGGAGGUUUAUCGAAUUUUCGGCGGAUGCCUCCAAA,0.0314 ± 0.0074 s⁻¹
15,AUAAACGCGCCAGAACUACAGAAAUGUAGUUGACGGGGAGGAGGUUUAUCGAAUUUUCGGGGGAUACCUCCAAA,< 1e-05 s⁻¹
16,AUAAACGCGUCAGAACUACAGAAAUGUAGUUGACGAUGAGGAGGUUUAUGGAACUUUCGGCGGAUGCCUACAAA,0.000151 ± 3.4e-05 s⁻¹
17,AUAAAGGCGCCAGAACUACAGAAAUGUAGUUGACGAGAAGGAGGUUUAUGGAAUUUGCGGCGGAUGCUUCCAAA,8.04e-05 ± 1.4e-05 s⁻¹

row,Variant,self-cleavage kobs at 2500 uM GlcN6P
1,AUAAAGGCGCCAGAACUACAGAAAUGUAGUCGACGGGGAGGUGGUUUAUCGAAUUUUCGGCGGAUGCCUCCAAA,< 1e-05 s⁻¹
2,AUAAAUGCGCCCGAACUACAGAAAUGUAGUUGACGAGGAGGAGGUUUAUCAAAUUUUCGGCGGAUGCCUCCAAA,< 1e-05 s⁻¹
3,AUAAACGCGCCAGAACUACAGAAAUGUAGUUGACGACGAGGAGGUUUAUCGAAUUUUCGGCGGAUGCCUCCAAA,< 1e-05 s⁻¹
4,AUAAAGGCGCGAGAACUACAGAAAUGUAGUUGACGAGGAGGAGGUUUAUCGAAUUUUCGGCGGAUGCCGCCAAA,7.2e-05 ± 2.9e-05 s⁻¹
5,AUAAAUGCGCCAGCACUACAGAAAUGUAGUUGACGAGGAGGAGGAUUGUCGAAUUUUCGGCGGAUUCCUCCAAA,< 1e-05 s⁻¹
6,AUAAACGCGCCGGAACUACAGAAAUGUAGUUGACGAGGAGGAGGUUUAUCGAAUCUUCGGCGGAUGCCUACAAA,< 1e-05 s⁻¹
7,AUAAAUGCGCCAGAACUACAGAAAUGUAGUUGACGAGGGGGAGGUUUAUCGAAUUUUCGGCGGAUGCCUUCAAA,8.18e-05 ± 3.2e-05 s⁻¹
8,AUAAAUGCGCCAGUACUACAGAAAUGUAAUUGAGGAGGAGGAGGUUUAUCGAAUUUUCGGCGAAUGCCUCCAAA,< 1e-05 s⁻¹
9,AUAAAUGCGCCAGAACUACAGAAAUGUAGUUGACGAGGUGCAGGUUUAUCGAAUUUUCGGCGGAUGCCUCCAAA,< 1e-05 s⁻¹
10,AUAAACGCGCCAGCACUACAGAAAUGUAGUUAACGAGUAGGAGGUUUAUCGAAUUUUCGGCGGAUGCCUCCAAA,< 1e-05 s⁻¹
11,UUAAAAGCGCCAGAACUACAGAAAUGUAGUUGACGAGGAGUAGGUUUAUCGAAUUUUCGGCGGAUGCCUGUAAA,0.000249 ± 4e-05 s⁻¹
12,AUAAACGCGCCAGAUCUACAGAAAUGUAGUUGACGAGGAGGAAGUUUAUCGAAUUUUCGGCGGAUGCCUCUAAA,< 1e-05 s⁻¹
13,AUAAAUGCGCCAGAACUACAGAAAUGUAGUUGACGCGGAGGAGGUUUAUCGAAUGUUCGGCGGAUGCCUCCAAA,< 1e-05 s⁻¹
14,AUAAACGCGCCAGAACUACAGAAAUGUAGUUGACGAGGCGGAGGUUUAUCGAAUUUUCGGCGGAUGCUUCCAAA,< 1e-05 s⁻¹
15,AUAAAGGCGCCAGAACUACAGAAAUGUAGAUGACGAGGGGGAGGUUUAUCGAAUUUUCGGCGGAUGCCUCCAAA,8.54e-05 ± 2.8e-05 s⁻¹
16,AUAAAGGCGCCAGAACUACAGAAAUGUAGUAGACGAGGAGGAGGUUUAUCGAAUUUUCGGCGGAUGCCUCCAAA,0.000107 ± 3.2e-05 s⁻¹
17,AUAAAUGCGCCAGAUCUACAGAAAUGUAGUUGACGCGGAGGAGGUUUAUCGAAUUUUCGGCGGAUGCCUCCAAA,< 1e-05 s⁻¹

# Variants of: B1
# Assay: self-cleavage kobs at 10000 uM GlcN6P; higher = faster cleavage; RNA array
# Conditions: with glucosamine-6-phosphate
# Outline: as §1
row,Variant,self-cleavage kobs at 10000 uM GlcN6P
1,AUAAACGCGCCAGAACUACAGAAAUGUAGUUGACGACGAGGAGGUUUAUCGAAUUUUCGGCGGAUGCCUCCAAA,< 1e-05 s⁻¹
2,UUAAAAGCGCCAGAACUACAGAAAUGUAGUUGACGAGGAGUAGGUUUAUCGAAUUUUCGGCGGAUGCCUGUAAA,0.000232 ± 6e-05 s⁻¹
3,AUAAAGGCGCCAGAACUACAGAAAUGUAGUAGACGAGGAGGAGGUUUAUCGAAUUUUCGGCGGAUGCCUCCAAA,0.000258 ± 6e-05 s⁻¹
